Assay: soluble on expression in E. coli; label from the status in PepcDB or PDB records

Sequence | soluble on expression in E. coli
MKLPDELRQAYQKNARQFSWVFPLETEQTALAIFAAGEKAYQGERFFWQTPKKDFALVGFGYETILKGAETETHQLNNFLKKEAATRFQNMSISGTGALLFGGLPFDTEQTPTEAWGELGEGWFYLPSILFTFSGSRIYGTLNFSGSSEQEVEERWSTLVAQFDRLLATCEELPAVAETKIDKEEVAVTEWLQAVNETVAVLREDGPLKKVVLARQLAVSSPEKIRSNQVLVNLMAQQQNTYLFALEAKDTSFIGATPERLLLGTKETFATACIAGTIKTGQTPEETKTLGAQLLQDRKNTGEHQIVVERLAKELAKMTTSENSIQAPIILENRDVQHLYVPISGQRKPGISFLESVMQLHPTPALGGEPKELAVEWIRQYEPGSRGLYGAPIGWISGNDDSGEFAVALRSGVFAGQQGVLYAGCGIVADSQAELEREETKIKFQPMLRGIGGQV | not soluble
MKLTIIRLEKFSDQDRIDLQKIWPEYSPSSLQVDDNHRIYAARFNERLLAAVRVTLSGTEGALDSLRVREVTRRRGVGQYLLEEVLRNNPGVSCWWMADAGVEDRGVMTAFMQALGFTTQQGGWEKCG | soluble
MKLTILRLEHFSAQDQIDLGKIWPEYSASSLSVDETHRIYAARFNERLLGAVRVTLSGTQGALDSLRVREITRRRGVGQYLVEEVIRDNPNVSSWWMADVGVEDRSVMAAFMQALGFTAQHDGWEKR | not soluble
MKLYIGNKNYSSWSLRAWLMVKKSGIKFDEILLQLDTDSFYQQLQSISPTLKVPTLVDGDITVWDSLSICEYINDSYLSGTAWPQDPKQKAKARSLACEMHSGFNALRNALPMNIRARRYVELSPAVQQDIARVDSIWSQQMAEFAPCQTQGTWLFGQWSIADMMFAPVVMRFFTYEIEVSQASRAYMEYIMSQPQMQAWITAAKAETEIVEADEAGVDR | not soluble
MKLYYSPGACSLSPHIALREAGLNFELVQVDLASKKTASGQDYLEVNPAGYVPCLQLDDGRTLTEGPAIVQYVADQVPGKQLAPANGSFERYHLQQWLNFISSELHKSFSPLFNPASSDEWKNAVRQSLNTRLGQVARQLEHAPYLLGDQLSVADIYLFVVLGWSAYVNIDLSPWPSLQAFQGRVGGREAVQSALRAEGLIKE | soluble
MKMIQFWFDFASTYSYPAAMQIRQLKDEYRFSLHPFLLGGIFQKQGLNDSPFNAYPVKGQYMWRDLERICQKLDLKFHRPVLFPQNGLLAARIACQYASAPWIFDFICSVYQANFVQNLDIGQPETISQILQNMQLDCNDIIMTSTTDTAKQTLKQNGMIAESLHIFGAPSFVVENELFWGQDRLQDAIDWSQR | not soluble
MKNIFGNKNTKRSKNKDGKALASTASKDVADPPKQGGTKGSKKPKPSRGNDEKGREPETSAQSKKAKKGKPKRDSKAATPALSPGSREMLSDHKKQTVEDDPPLPIATSVAGTVTTTGMPALLPAENATQPLKEVVNSGKKSKGAPNSATATPVSHKSTITEGADKWVGEDVAKNWMDSIDLAEVKKEFEKLQSMKVDVEKECKTWKANSKYNQSEDFPALDSNLLKVEKDYVNISRVEIPLGRNIYIGQVPVKDTEETFWKAVFDKRIVSIDVIVGDEPIEFFPKKAEDYKNYGQMWINNRKVEYVSDDVFRFSIEVLPHGCSNSIICNVTVISNWKVDSVPVKQAIAIKEAFGLNSYLLKAPADDNAMINSQHGAGRAGYFLALAVAVHTIDTKVAEPCIVDIVKSIRSQRPRAVDSFCQYCSLYISLLYFIKKKVTKPAEGDKKSTPTNKYLHKKSVEMTKQFTNILLEANQPSVMGPQ | not soluble
MKNIIPQALLTMPILSTGLQAQEKQPTPNLVFIMADQYRGDAIGCIGKEPVKTPHLDKLASEGINFTNAISSYPVSSPARGMLMTGMYPIGSKVTGNCNSETAPYGVELSQNARCWSDVLKDQGYNMGYIGKWHLDAPYKPYVDTYNNRGKVAWNEWCPPERRHGFDHWIAYGTYDYHLKPMYWNTTAPRDSFYYVNQWGPEYEASKAIEYINGQKDQKQPFALVVSMNPPHTGYELVPDRYKEIYKDLDVEALCKGRPDIPAKGTEMGDYFRNNIRNYYACITGVDENVGRIIEALKQNNLFDNTIVVFTSDHGICMGAHENAGKDIFYEESMRIPMILSWPDQIKPRKSDPLMIAFADLYPTLLSMMGFSKEIPETVQTFDLSNEVLTGKNKKDLVQPYYFVKFDNHATGYRGLRTDRYTYAVHATDGKIDNVILFDRTNDPHEMNNIASQQLKLTHTFNRQLKTWLEKTNDPFAQYIKLKLEHHHHHH | soluble
MKNKVVVVTGVPGVGGTTVTQKAMDILSEEGLNYKMVNFGSAMFDVANEEGLASDRDQMRKLDPETQKRIQKMAGRKIAEMAKESPVAVDTHSTVKTPKGYLPGLPAWVLTELNPDIVIVVETDGDEILMRRLSDESRKRDLETTASIEEHQFMNRAAAMSYGVLTGATVKIVKNKNGLVDNAVEELMSVLR | soluble
MKNLVEEKEAFRFGVSGDIGSFSEEAALLYARKKGLNAHLVHLLDMEGVLNAIENETIDLGILPVVNLLGGLVKPAFQAMGKYSFTPIDEIWHDINQCLLVKTNTQNHKITHIVSHPQGFAQCKKFLRNKFKNAKKIEWIDTAKAAKDLAEGILPPHAAVIASARCAPLYDLKISARNIQDSHLNRTAFILVKKLEHHHHHH | not soluble
MKNNVKNWTTKEVKQSLDKFNNILIKNTFLLQYLKKEFSASSAYCLSMLPEEEDIYEILVNGNIIIDLEFNKHTNETVVINVTDVDEYLKTLTNESGRVFFTLAKEIGKQKNI | not soluble
MKPEDFRTDNKRPLTGEEYLKSLQDGREIYIYGERVKDVTTHPAFRNAAASVAQLYDALHKPSMQDTLCWNTDTGSGGYTHKFFRVAKSADDLRQQRDAIAEWSRLSYGWMGRTPDYKAAFGCALGANPAFYGQFEQNARNWYTRIQETGLYFNHAIVNPPIDRHKPADEVKDVYIKLEKETDAGIIVSGAKVVATNSALTHYNMIGFGSAQVMGENPDFALMFVAPMDAEGVKLISRASYEMVAGATGSPFDYPLSSRFDENDAILVMDKVLIPWENVLIYRDFDRCRRWTMEGGFARMYPLQACVRLAVKLDFITALLKKSLECTGTVEFRGVQADLGEVVAWRNMFWALSDSMCSEATPWVNGAWLPDHAALQTYRVMAPMAYAKIKNIIERNVTSGLIYLPSSARDLNNPQIDQYLAKYVRGSNGMDHVERIKILKLMWDAIGSEFGGRHELYEINYSGSQDEIRLQCLRQAQSSGNMDKMMAMVDRCLSEYDQNGWTVSHLHNNDDINQLDKLLK | not soluble
MKPKLILMSHGRMAEETLASTQMIVGELADAAIVSMTAEDGLSGTQAKLAAILKEAGNVPTLVLADLKGGTPCNVAMMAMGTYPQLRVVAGLNLAMAIEAAVSPVENVDELAAYLTQIGQSAVTTIDLPELTDEEEFEE | soluble
MKPKPSQFKNLERMLGLKTEQLDAVKVTIELKDKILIIENPTVIKMIAQGQEIYSVIGEAKEAQKEEPKVEIKDEDVKFVMEQTGKGEQEVKEALQKANGDIAKAILLLTGQET | soluble
MKPLTYTLVVNGPQYGTQSARNAYLFAKALIEKGHILKSVFFYQDGVLNGSSTHVPANDEFNLLQGWQSLAQSHQVQLETCVAAALRRGVVSEQEASQHGLASHNLAAHFTQAGLGSLAQALLEQDRVVQF | soluble
MKPPFEQALGIIRQLKRHGYEAYFVGGAVRDLLIGRPIGDVDIATSALPEEVMRLFPKTIDVGSKHGTVVVVHEGTAYEVTTFRTDGDYEDHRRPESVTFVRSLEEDLKRRDFTMNAIAMDERGTIIDPFGGQEAIERRLICTVGAADERFREDALRMMRAVRFVSQLGFALAEDTKSAIVQNAPLMAHISVERMTMEMEKLLAGPFVAEALPLLADTGLFAYLPGLAAKEQLLRSAAAFRWPWLTKREERWALLCRALDVKDIRPFLRAWKLPNKVIDEAGAILAALDDVPRPEAWTNEQLFSAGLERALSVEAVRAALCGAPSEPHHEELRRRFAALPIKTKGELAVNGKDVIRWAGKPAGPWVKETLDAIWRAVVSSEVENEKERIYAWLMERNRTHEKNC | not soluble
MKPSMEKVLLQIALDLSSNLSSDLHYQRLINSIHQVFPCDASALFILDNDHCLKPVAVKGLSQAVLGRCFPPQVHPRLEAILQSKHPVRFESNSDLPDPFDGLLLVDENINIEVHDCLGCSLYVDDTLVGVLTLDALEVGAFKKIDDITIETFAALAAATLHNKALIKTLQDSNQQQKSINQTLI | not soluble
MKPYLMGNNPCGADATLFAFAASLLSPVFETPIRAAAESHPNLIAYMARMRTRYYPDFQGSGVFAPALEHHHHHH | not soluble
MKQASAIPQPKTYGPLKNLPHLEKEQLSQSLWRIADELGPIFRFDFPGVSSVFVSGHNLVAEVCDEKRFDKNLGKGLQKVREFGGDGLFTSWTHEPNWQKAHRILLPSFSQKAMKGYHSMMLDIATQLIQKWSRLNPNEEIDVADDMTRLTLDTIGLCGFNYRFNSFYRDSQHPFITSMLRALKEAMNQSKRLGLQDKMMVKTKLQFQKDIEVMNSLVDRMIAERKANPDENIKDLLSLMLYAKDPVTGETLDDENIRYQIITFLIAGHETTSGLLSFAIYCLLTHPEKLKKAQEEADRVLTDDTPEYKQIQQLKYIRMVLNETLRLYPTAPAFSLYAKEDTVLGGEYPISKGQPVTVLIPKLHRDQNAWGPDAEDFRPERFEDPSSIPHHAYKPFGNGQRACIGMQFALQEATMVLGLVLKHFELINHTGYELKIKEALTIKPDDFKITVKPRKTAAINVQRKEQADIKAETKPKETKPKHGTPLLVLFGSNLGTAEGIAGELAAQGRQMGFTAETAPLDDYIGKLPEEGAVVIVTASYNGAPPDNAAGFVEWLKELEEGQLKGVSYAVFGCGNRSWASTYQRIPRLIDDMMKAKGASRLTAIGEGDAADDFESHRESWENRFWKETMDAFDINEIAQKEDRPSLSITFLSEATETPVAKAYGAFEGIVLENRELQTAASTRSTRHIELEIPAGKTYKEGDHIGILPKNSRELVQRVLSRFGLQSNHVIKVSGSAHMAHLPMDRPIKVVDLLSSYVELQEPASRLQLRELASYTVCPPHQKELEQLVSDDGIYKEQVLAKRLTMLDFLEDYPACEMPFERFLALLPSLKPRYYSISSSPKVHANIVSMTVGVVKASAWSGRGEYRGVASNYLAELNTGDAAACFIRTPQSGFQMPNDPETPMIMVGPGTGIAPFRGFIQARSVLKKEGSTLGEALLYFGCRRPDHDDLYREELDQAEQDGLVTIRRCYSRVENEPKGYVQHLLKQDTQKLMTLIEKGAHIYVCGDGSQMAPDVERTLRLAYEAEKAASQEESAVWLQKLQDQRRYVKDVW | soluble
MKQEETLTKVKVAEVTHSIFYAPLYVAESKGFFKEEGLDVDVNTTWGGDKTMTSLLSNGSDIALVGSETSIYVEAQGAKDPVINFAQLTQTDGTFLVAREDVEHFDWDQLKGKTFLGQRKGGMPQMVGEYVLNKHKIDPHKDIDLIQNIDFANIANAFASGTGEYVQLFEPQLLSLRKKASAISWLHSEKNQERFLIRLLWRNKAILEHHHHHH | not soluble
MKQEFVAAIEIDGTGRIHVTPGESQFPYIYREAMEVSWNESTRSLHSPVPREWSYAQWLQQIFAAASEQGVKLVLGPNTRWVNVPNELRAELTHAAAA | soluble
MKQINDVSFLLDKRLVVLIEHQSTINENLPYRLLEYITRIYEKIVDKEKKYQKNLVKIPKPEFIVLYNGADPYPDYTELKLSDAFMDIEGLKLTGIDKIPLELIVPVYNINQGHNPEILKKCESLYGYSFFISKIREYQTQGLTLEELITPVIEYCIKNNILKDYLEAHASEVINMIFGEYDREMDIAVNRREAREEGREEGFKEGKLIIAKNLLSEGSTPEFVQRITGLTLDEIEEIGL | not soluble
